The results in this text go back to paper PMC4848090, “Mechanistic insight into a peptide hormone signaling complex mediating floral organ abscission” (eLife, 2016).

Non-standard residues stand in square brackets, D forms with d. No end group written: not given here. Hyp = O=C(O)[C@@H]1C[C@@H](O)CN1

The labels stand for the following.
T1: 1:1 HAESA – SERK1 ectodomain mixture (Arabidopsis thaliana, UniProt P47735 20-620; Q94AG2 24-213, Asn115→Asp | Asn163→Gln, N-glycans)
T1 construct: HAESA, Arabidopsis thaliana, ectodomain residues 20–620; SERK1, Arabidopsis thaliana, ectodomain residues 24–213; they are the content of the ITC cell into which the peptides were titrated; also called HAESA/SERK1 protein solution; HAESA - SERK1 mixture; source: Trichoplusia ni Tnao38 cells (baculovirus), each ectodomain expressed and purified separately, then mixed 1:1; not …
T1 sequence (looked up) 1: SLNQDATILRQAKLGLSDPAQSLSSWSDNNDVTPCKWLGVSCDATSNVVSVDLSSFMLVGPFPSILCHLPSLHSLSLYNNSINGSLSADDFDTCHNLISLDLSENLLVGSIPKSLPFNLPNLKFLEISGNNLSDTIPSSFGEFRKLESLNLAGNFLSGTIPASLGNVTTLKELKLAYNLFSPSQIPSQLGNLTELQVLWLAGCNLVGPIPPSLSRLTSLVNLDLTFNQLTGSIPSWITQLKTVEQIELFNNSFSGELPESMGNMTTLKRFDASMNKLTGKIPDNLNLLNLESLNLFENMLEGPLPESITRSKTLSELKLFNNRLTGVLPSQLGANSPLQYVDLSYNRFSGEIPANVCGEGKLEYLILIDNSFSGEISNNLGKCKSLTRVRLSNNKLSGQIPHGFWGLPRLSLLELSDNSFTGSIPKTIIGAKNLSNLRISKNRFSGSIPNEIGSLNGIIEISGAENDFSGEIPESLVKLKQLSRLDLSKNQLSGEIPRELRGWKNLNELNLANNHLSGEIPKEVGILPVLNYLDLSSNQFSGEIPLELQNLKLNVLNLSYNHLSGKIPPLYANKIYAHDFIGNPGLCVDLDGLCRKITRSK
T1 sequence (looked up) 2: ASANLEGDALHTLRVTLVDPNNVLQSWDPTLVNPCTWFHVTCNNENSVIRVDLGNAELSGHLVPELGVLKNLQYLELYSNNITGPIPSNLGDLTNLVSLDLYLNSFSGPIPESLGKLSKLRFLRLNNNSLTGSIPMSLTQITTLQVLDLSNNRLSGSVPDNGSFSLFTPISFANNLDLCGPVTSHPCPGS

T2: Arabidopsis thaliana HAESA ectodomain (residues 20–620) (Arabidopsis thaliana, UniProt P47735 20-620, N-glycans (glycoprotein of ~75 kDa))
T2 construct: HAESA, leucine-rich repeat receptor kinase, Arabidopsis thaliana, ectodomain residues 20–620; Synthetic gene, codon optimized; the vector provides an azurocidin signal peptide for secretion; also called HAESA LRR domain; HAESA LRR ectodomain; not shown: Strep, C-terminal, cleaved; 9xHis, C-terminal, cleaved
T2 sequence (looked up): T1 sequence (looked up) 1

T3: 1:1 HAESA – SERK1 ectodomain mixture (Arabidopsis thaliana, UniProt P47735 20-620; Q94AG2 24-213, Asn115→Asp | Asn163→Gln, N-glycans)
T3 sequence 1: T1 sequence (looked up) 1
T3 sequence 2: T1 sequence (looked up) 2

T4: Arabidopsis thaliana SERK1 ectodomain (residues 24–213, Asn115→Asp and Asn163→Gln) (Arabidopsis thaliana, UniProt Q94AG2 24-213, Asn115→Asp | Asn163→Gln)
T4 sequence: T1 sequence (looked up) 2

B1: synthetic Lys66/Arg67 → Ala mutant IDA peptide (peptide)
peptide: YVPIPPSA[Hyp]SAAHN
notes: INFLORESCENCE DEFICIENT IN ABSCISSION (IDA), Arabidopsis thaliana; as the IDA stretch of m3 with the two changes; also called IDA K66A/R67A; IDA K66A/R66A; source: synthetic peptide
B2: synthetic PKGV-IDA peptide YPKGVPIPPSA-Hyp-SKRHN (peptide)
peptide: YPKGVPIPPSA[Hyp]SKRHN
notes: N-terminal Tyr; INFLORESCENCE DEFICIENT IN ABSCISSION (IDA), Arabidopsis thaliana; Hyp written as P; also called N-terminally extended IDA peptide; source: synthetic peptide
B3: synthetic IDA peptide YVPIPPSA-Hyp-SKRHN (peptide)
peptide: YVPIPPSA[Hyp]SKRHN
notes: N-terminal Tyr residue added to allow for peptide quantification by UV absorbance; INFLORESCENCE DEFICIENT IN ABSCISSION (IDA), Arabidopsis thaliana; Hyp written as P; Used in ITC and for the HAESA-IDA-SERK1 complex that was crystallised; also called wild-type IDA; IDA wild-type; source: synthetic peptide
B4: Arabidopsis thaliana HAESA ectodomain (residues 20–620) (domain or fragment)
chain: T1 sequence (looked up) 1
modifications: N-glycans (glycoprotein of ~75 kDa)
B5: synthetic IDL1 peptide LVPPSG-Hyp-SMRHN (crystal soak) (peptide)
peptide: LVPPSG[Hyp]SMRHN
notes: IDA-LIKE 1 (IDL1), Arabidopsis thaliana; Hyp written as P; source: synthetic peptide
B6: synthetic IDA peptide PIPPSA-Hyp-SKRHN (crystal soak) (peptide)
peptide: PIPPSA[Hyp]SKRHN
notes: INFLORESCENCE DEFICIENT IN ABSCISSION (IDA), Arabidopsis thaliana, residues 58-69; Hyp written as P; also called dodecamer peptide; source: synthetic peptide

For test [1], the target named is T5, HAESA ectodomain (residues 20–620) (Arabidopsis thaliana, UniProt P47735).
T5 construct: We purified the HAESA ectodomain (residues 20–620) from baculovirus-infected insect cells; azurocidin signal peptide (N); made in house; host or cells: Trichoplusia ni Tnao38 insect cells (baculovirus, secreted)
Put plainly: Isothermal titration calorimetry of synthetic IDA-family peptides vs. the isolated HAESA ectodomain. It counts as binding. From the text: Synthetic genes coding for the Arabidopsis thaliana HAESA (residues 20–620) and SERK1 ectodomains (residues 24–213, carrying Asn115→Asp and Asn163→Gln mutations), codon optimized for expression in Trichoplusia ni (Geneart, Germany), were cloned into a modified pBAC-6 transfer vector (Novagen, Billerica, MA), providing an azurocidin signal peptide and a C-terminal TEV (tobacco etch virus protease) cleavable Strep-9xHis tandem affinity tag. Recombinant baculoviruses were generated by co-transfecting transfer vectors with linearised baculovirus DNA (ProFold-ER1, AB vector, San Diego, CA) followed by viral amplification in Spodoptera frugiperda Sf9 cells. […] The purified HAESA ectodomain was incubated with a synthetic IDA peptide (YVPIPPSA-Hyp-SKRHN, the N-terminal Tyr residue was added to allow for peptide quantification by UV absorbance) and the SERK1 ectodomain in 1:1:1.5 molar ratio. […]
ITC experiments were performed using a Nano ITC (TA Instruments, New Castle, DE) with a 1.0 mL standard cell and a 250 μL titration syringe. […] Molar protein concentrations for SERK1 and HAESA were calculated using their molar extinction coefficient and a molecular weight of 27,551 and 74,896 Da, respectively (determined by MALDI-TOF mass spectrometry). […] Data were analyzed using the NanoAnalyze program (version 2.3.6) as provided by the manufacturer.

The test system of test [2] is HAESA and SERK1 ectodomains. As to the kind of experiment: Analytical size-exclusion chromatography of HAESA – SERK1 ectodomain complex formation with peptide. It counts as binding, Arabidopsis thaliana. As to conditions: Superdex 200 HR 10/30, 20 mM citric acid pH 5, 100 mM NaCl; peptide 25 μM; HAESA and SERK1 1:1 molar ratio; UV 280 nm. How it is done: Gel filtration experiments were performed using a Superdex 200 HR 10/30 column (GE Healthcare) pre-equilibrated in 20 mM citric acid (pH 5) and 100 mM NaCl. 100 μL of the isolated HAESA ectodomain (5.5 mg/mL), of the purified SERK1 LRR domain (3 mg/mL) or of mixtures of HAESA and SERK1 (either in the presence or absence of synthetic wild-type IDA, wild-type IDL1 or mutant IDA peptides at a concentration of 25 μM; 10 mg/mL; samples contained HAESA and SERK1 in 1:1 molar ratio) were loaded sequentially onto the column and elution at 0.5 mL/min was monitored by ultraviolet absorbance at 280 nm.
On the technique in general: SEC sorts molecules by how far they enter the pores of the column.

The target of test [3] is T1, 1:1 HAESA – SERK1 ectodomain mixture. As to the kind of experiment: ITC; 150 μM wild-type or mutant IDA peptide in the syringe, 10 μM of a 1:1 HAESA – SERK1 protein mixture in the cell; 25°C; 20 mM citric acid pH 5.0, 100 mM NaCl. The conditions noted are these: both partners purified. A general note: In ITC the heat of successive injections is recorded.
Test [4] deals with T2, Arabidopsis thaliana HAESA ectodomain …. As to the kind of experiment: crystal structure; apo HAESA ectodomain crystals soaked in crystallization buffer with 15 mM synthetic peptide. As to conditions: both partners purified.
In test [5] the target is B4. Put plainly: ITC.
Test [6] addresses T3, 1:1 HAESA – SERK1 ectodomain mixture. Put plainly: ITC; HAESA - SERK1 mixture in cell.
Test [7] has as its target T4, Arabidopsis thaliana SERK1 ectodomain …. As to the kind of experiment: ITC; in presence of IDA.

The term Kd denotes the constant that tells how readily two partners part at equilibrium. `CC[C@H](C)[C@H](NC(=O)[C@@H]1CCCN1C(=O)[C@@H](NC(=O)[C@@H](N)Cc1ccc(O)cc1)C(C)C)C(=O)N1CCC[C@H]1C(=O)N1CCC[C@H]1C(=O)N[C@@H](CO)C(=O)N[C@@H](C)C(=O)N1C[C@H](O)C[C@H]1C(=O)N[C@@H](CO)C(=O)N[C@@H](CCCCN)C(=O)N[C@@H](CCCNC(=N)N)C(=O)N[C@@H](Cc1c[nH]cn1)C(=O)N[C@@H](CC(N)=O)C(=O)O` [IDA] gave a Kd in test [1] of 20 ± 0.9 µM.
Consider “IDA Hyp64P: IDA mutant peptide with Hyp64 replaced with proline (YVPIPPSAPSKRHN)”, for which the “HAESA – SERK1 complex formation in size exclusion chromatography” value in test [2] is on record as “no complex formation”.
With “YPIPPSA[Hyp]SKRHNSFVN [IDA-SFVN, C-terminally extended IDA peptide]”, the “binding to the HAESA ectodomain, in words” value in test [1] (ITC) is “cannot bind”.
On to B1, for which the “fold reduced binding affinity against wild-type IDA” value in test [3] came out at 10 fold.
For the molecule B2, the binding result in test [4] was “binds”. Further, binding in test [5] was put at a Kd of 25 µM.
Molecule YLVPPSG[Hyp]SMRHN [synthetic IDL1 peptide YLVPPSG-Hyp-SMRHN (ITC)] returned a Kd in test [5] of 135 µM.
B3: the “fold higher binding affinity than for HAESA alone” value in test [3] was about 60 fold. For the same molecule, the Kd in test [6] was 0.35 µM.
Take B4: the equilibrium dissociation constant (Kd) in test [7] is 0.075 µM.
Turning to B5, the binding result in test [4] is “binds”.
On the same count and under the same terms, under B6 stands “binds”.
